Results: patent US20250277029A1, “CANNABINOID TYPE 1 RECEPTOR BINDING PROTEINS AND USES THEREOF” (AMGEN INC., priority 2022, published 2025)
Positions count from the first letter of the chain named.

Experiments:
[1] = target: T1, XCR1-SMALP; assay: flow cytometry, yeast-displayed Fab, 50 nM XCR1 SMALP
T1 sequence (P46094 whole entry, species assumed, looked up): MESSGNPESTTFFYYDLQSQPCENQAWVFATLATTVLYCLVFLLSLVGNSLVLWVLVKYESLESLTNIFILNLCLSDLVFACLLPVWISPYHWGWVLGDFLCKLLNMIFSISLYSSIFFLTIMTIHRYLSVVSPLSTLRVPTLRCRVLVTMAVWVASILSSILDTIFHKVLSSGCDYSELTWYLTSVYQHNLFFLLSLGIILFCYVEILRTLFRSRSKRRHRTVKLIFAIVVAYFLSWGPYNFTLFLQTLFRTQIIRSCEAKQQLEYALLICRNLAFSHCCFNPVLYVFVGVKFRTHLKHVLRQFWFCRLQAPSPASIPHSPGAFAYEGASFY

[2] = target: T2, XCR1-SMALP-GFP; assay: flow cytometry, yeast-displayed Fab, 25 nM XCR1-SMALP-GFP, after background subtraction
T2 sequence (P46094 whole entry, species assumed, looked up): T1 sequence (P46094 whole entry, species assumed, looked up)

B1: LIBC673952-1 (Fab on yeast) (Fab, V domains shown)
VH: QVQLQESGPGLVKPSQTLSLTCTVSGGSIRRGGDYWSWIRQHPGKGLEWIGHVYYTGQTTYNPSFRGRVTISVNTYKNQFSLKLSSVTAADTAVYYCARDYDILTGYSYYYYGLDVWGQGTTVTVSS
VL: DIVMTQSPLSLPVTPGEPASISCRSSQSLLHRSGYNYLDWYLQKPGQSPQLLIYQGSNRASGVPDRFSGSGSGTDFTLKISRVEAEDVGVYYCRQARALPRTFGQGTKVEIKR
Work on B1 yielded a relative binding fold change compared to LIBC523797-1(Fab) [1] of 0.59 fold.

B2: LIBC674090-1 (Fab on yeast) (Fab, V domains shown)
VH: QVQLQESGPGLVKPSQTLSLTCTVSGGSIRRGGDYWSWIRQHPGKGLEWIGHIYYAGSTAYNPNFRGRVRISVNTYKNQFSLKLSSVTAADTAVYYCARGYDTSGYSYYYYGLDVWGQGTTVTVSS
VL: B1 VL with R94M, A96S, R97L, A98Q, L99T
B2 showed a relative binding fold change compared to LIBC523797-1(Fab) [1] of 0.74 fold.

B3: LIBC674229-1 (Fab on yeast) (Fab, V domains shown)
VH: B2 VH with Y55Q, A56T, S58Q, A60K, N64S, R66K, T103V, L113M
VL: B1 VL with R94M, A96S, R97L, A98Q, L99T
B3 gave a relative binding fold change compared to LIBC523797-1(Fab) [1] of 0.8 fold.

B4: LIBC674200-1 (Fab on yeast) (Fab, V domains shown)
VH: B2 VH with I53V, A56T, S58Q, G67N, T103V, L113M
VL: B1 VL with Q55L, D65G, R94M, A96S, R97L, A98Q, L99T
For B4, the relative binding fold change compared to LIBC523797-1(Fab) [1] was 0.79 fold.

B5: LIBC680562-1 (yeast-displayed Fab) (Fab, V domains shown)
VH: QVQLQESGPGLVKPSQTLSLTCTVSGGSIRRGGDYWAWIRQHPGKGLEWIGHIYQTGSTNYNPRFKGRATISVNTYKNQFSLKLSSVTAADTAVYYCARNYDTLTGYSYYYYGMDVWGQGTTVTVSS
VL: DIQMTQSPSSLSASVGDRVTITCRASQSISSYLNWYQQKPGKAPKLLIYSARRLSSGVPSRFSGSGSGTDFTLTISSLQPEDFATYYCQQYAKSPITFGGGTKVEIKR
For B5, the Relative binding fold change compared to LIBC528116 (Fab) [2] was 0.64 fold.

B6: LIBC680574-1 (yeast-displayed Fab) (Fab, V domains shown)
VH: B5 VH with I53V, Q55Y, N60K, R64S, G67D
VL: B5 VL with S50G, S55G, A92S, K93S, S94L, I96V
Binder B6 has a Relative binding fold change compared to LIBC528116 (Fab) [2] of 0.56 fold.

B7: LIBC681594-1 (yeast-displayed Fab) (Fab, V domains shown)
VH: B5 VH
VL: B5 VL with S50K, R53K, Y91F, A92G, K93S, S94M, I96L
B7 gave a Relative binding fold change compared to LIBC528116 (Fab) [2] of 1.04 fold.

B8: LIBC680812-1 (yeast-displayed Fab) (Fab, V domains shown)
VH: B5 VH with A37G, I53V, N60K, R64S, G67D
VL: B5 VL with A92R, K93S, S94Y
B8 gave a Relative binding fold change compared to LIBC528116 (Fab) [2] of 0.59 fold.

B9: LIBC680800-1 (yeast-displayed Fab) (Fab, V domains shown)
VH: B5 VH
VL: B5 VL with R53A, A92R, S94F, I96L
Binder B9 has a Relative binding fold change compared to LIBC528116 (Fab) [2] of 0.47 fold.

B10: LIBC681593-1 (yeast-displayed Fab) (Fab, V domains shown)
VH: B5 VH
VL: B5 VL with S50N, S55G, A92R, K93S, I96V
B10 showed a Relative binding fold change compared to LIBC528116 (Fab) [2] of 0.72 fold.
